From PMC12435805 (Nature Chemical Biology, 2025)
Like-named read-outs stand apart in the source and are kept apart here.

B6: truncated RECQL5 protein (11–453) (domain or fragment, UniProt O94762 11-453, looked up)
chain: DPERRVRSTLKKVFGFDSFKTPLQESATMAVVKGNKDVFVCMPTGAGKSLCYQLPALLAKGITIVVSPLIALIQDQVDHLLTLKVRVSSLNSKLSAQERKELLADLEREKPQTKILYITPEMAASSSFQPTLNSLVSRHLLSYLVVDEAHCVSQWGHDFRPDYLRLGALRSRLGHAPCVALTATATPQVQEDVFAALHLKKPVAIFKTPCFRANLFYDVQFKELISDPYGNLKDFCLKALGQEADKGLSGCGIVYCRTREACEQLAIELSCRGVNAKAYHAGLKASERTLVQNDWMEEKVPVIVATISFGMGVDKANVRFVAHWNIAKSMAGYYQESGRAGRDGKPSWCRLYYSRNDRDQVSFLIRKEVAKLQEKRGNKASDKATIMAFDALVTFCEELGCRHAAIAKYFGDALPACAKGCDHCQNPTAVRRRLEALERSSSW
notes: also called RECQ5; DNA helicase RECQL5

Experiments:
hen egg white lysozyme = hen egg white lysozyme (Gallus gallus, UniProt P00698)
hen egg white lysozyme, sequence (P00698 19-147): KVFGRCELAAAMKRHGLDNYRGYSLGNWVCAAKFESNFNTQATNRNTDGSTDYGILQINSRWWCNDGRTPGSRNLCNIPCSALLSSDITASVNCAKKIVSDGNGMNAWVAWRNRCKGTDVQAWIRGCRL

[1] = molecular target: B6
[2] = molecular target: B6; assay: BLI; conditions: both partners purified
[3] = molecular target: SARS-CoV-2 receptor-binding domain (RBD) (SARS-CoV-2, ancestral strain assumed, UniProt P0DTC2, glycans removed; complex for cryo-EM PEGylated with NHS-PEG4-azide)
[4] = molecular target: T1, anti-RECQL5 homoDiGb5-006; assay: BLI; conditions: both partners purified
T1 construct: also called homoDiGb Gb5-006

superfolder GFP = molecular target: T2, superfolder GFP (Aequorea victoria, engineered …, stabilised); assay: BLI; conditions: both partners purified
T2 construct: also called sfGFP
T2 sequence (P42212 other isoform, or with tags, fused parts or gaps, change not shown): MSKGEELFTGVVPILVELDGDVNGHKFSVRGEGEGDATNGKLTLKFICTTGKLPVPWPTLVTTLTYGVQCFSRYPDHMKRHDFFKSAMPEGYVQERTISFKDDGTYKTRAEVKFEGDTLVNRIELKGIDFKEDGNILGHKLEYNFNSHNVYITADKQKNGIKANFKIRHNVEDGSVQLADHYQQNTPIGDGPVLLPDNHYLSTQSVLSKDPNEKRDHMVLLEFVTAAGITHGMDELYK

B1: GbLysozyme (VHH)
VHH: DVQLVENGGGCVKAGGSLRLSCAASGSTDSIEYMTWFRQAPGKAREGVAALYTHTGNTYYTDSVKGRFTISQDKAKNMAYLRMDSVKSEDTAIYTCGATRKYVPVRFALDQSSYDYWGQGTQVMVSS
binding result (hen egg white lysozyme): binds

B2: Nb5-006 (VHH)
VHH: VQLVENSGGGLVQAGGSLRLSCAASGSIFSINRMTWYRQAPGKEREWVAAITSGGSTNYADSVKGRFTISRDNAENTVYLQMNSLKPEDTAVYYCEAYGTYTLAPTGEGEYDDYWGQGTQVTVS
Kd [1]: 1200 nM

B3: anti-RECQL5 monomeric Gb5-006 (VHH)
VHH: QVQLVENGGGCVKAGGSLRLSCAASGSIFSINRMTWYRQAPGKEREWVAAITSGGSTNYADSVKGRFTISRDNAENTVYLQMNSLKPEDTAVYYCEAYGTYTLAPTGEGEYDDYWGQGTQVMVS
notes: also called G5-006; Gb equivalent
Kd [2]: 9000 nM

B4: anti-RECQL5 wild-type nanobody (VHH)
VHH: QVQLVESGGGLVQAGGSLRLSCAASGSIFSINRMGWYRQAPGKQRELVAAITSGGSTNYADSVKGRFTISRDNAKNTVYLQMNSLKPEDTAIYYCEAYGTYTLAPTGEGEYDDYWGQGTQVTVS
notes: also called RECQL5 nanobody; anti-RECQL5 nanobody
Kd [2]: 1200 nM

B5: GbRBD1 (VHH)
VHH: QVQLVENGGGCVKAGGSLRLSCAVSGRTFSTAAMGWFRQAPGKEREFVAAIRWSGGSAYYADSVKGRFTISRDKAKNTVYLQMNSLKYEDTAVYYCAQTRVTRSLLSDYATWPYDYWGQGTQVMVS
binding result [3]: binds

B6
Kd [4]: 23400 nM

B7: anti-sfGFP monomeric GbEnhancer (VHH)
VHH: QVQLVENGGACVKPGGSLRLSCAASGFPVNRYSMRWYRQAPGKEREWVAGMSSAGDRSSYEDSVKGRFTISRDDARNTVYLQMNSLKPEDTAVYYCNVNVGFEYWGQGTQVMVS
notes: also called GbGFP; sfGFP Gb
Kd (superfolder GFP): 5 nM
